In the supplement of paper PMC10724198:
± gives the standard deviation of the averaged measurements.

Experiments:
Saccharomyces cerevisiae [1] = assay: protein stability index of tFT-peptide fusion (C-terminal peptide) (PSI (0-1 scale)); higher = more stable (slower turnover)
Procedure: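 MPS profiling in S. cerevisiae of the tFT-X12 degron library: putative degron peptides plus stable controls, 12 aa, fused to the C-terminus of a sfGFP-mCherry timer. Cells are FACS-sorted into 8 mCherry/sfGFP bins and deep-sequenced. PSI runs from 0 (unstable) to 1 (stable). Backgrounds are wild type, das1Δ and doa10Δ at 30 °C, and wild type, das1Δ, cdc34-1 and cdc53-1 at 37 °C; 2-3 technical replicates each.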

Saccharomyces cerevisiae [2] = assay: as above; conditions: genetic background: wild type; temperature: 30 C
[3] = genetic background: cdc34-1, temperature: 37 C
[4] = genetic background: cdc53-1, temperature: 37 C
[5] = genetic background: das1 deletion, temperature: 30 C
[6] = genetic background: das1 deletion, temperature: 37 C
[7] = genetic background: doa10 deletion, temperature: 30 C
[8] = genetic background: wild type, temperature: 30 C
[9] = genetic background: wild type, temperature: 37 C
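Note: PSI is a weighted mean of sequencing reads over stability bins, variants kept only with over 10 reads, mCherry proximal and sfGFP distal, peptide attached via GGGS linker.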

Row | Sequence | protein stability index (Saccharomyces cerevisiae [1]; [3]) | protein stability index (Saccharomyces cerevisiae [1]; [4]) | protein stability index (Saccharomyces cerevisiae [1]; [5]) | protein stability index (Saccharomyces cerevisiae [1]; [6]) | protein stability index (Saccharomyces cerevisiae [1]; [7]) | protein stability index (Saccharomyces cerevisiae [1]; [8]) | protein stability index (Saccharomyces cerevisiae [1]; [9]) | protein stability index (Saccharomyces cerevisiae [2])
1 | CFVRCFVSIRLF | 0.109 ± 0.041 | 0.167 ± 0.0043 | 0.163 ± 0.019 | 0.3093 ± 0.0021 | 0.0737 ± 0.012 | 0.0716 ± 0.026 | 0.146 ± 0.015 | 0.133 ± 0.034
2 | CGGLFDVALGVG | 0.457 ± 0.031 | 0.5096 ± 0.0026 | 0.449 ± 0.01 | 0.522 ± 0.011 | 0.477 ± 0.021 | 0.468 ± 0.023 | 0.516 ± 0.0067 | 0.471 ± 0.027
3 | CGGVQVWRVKVV | 0.657 ± 0.023 | 0.715 ± 0.012 | 0.605 ± 0.011 | 0.722 ± 0.0077 | 0.18 ± 0.016 | 0.221 ± 0.018 | 0.401 ± 0.0066 | 0.3403 ± 0.002
4 | CGSFWVNVLCAV | 0.402 ± 0.01 | 0.422 ± 0.018 | 0.334 ± 0.035 | 0.497 ± 0.01 | 0.2657 ± 0.0011 | 0.299 ± 0.034 | 0.444 ± 0.0067 | 0.402 ± 0.013
5 | CILYLSWIIFRA | 0.161 ± 0.037 | 0.192 ± 0.011 | 0.198 ± 0.041 | 0.343 ± 0.0091 | 0.213 ± 0.034 | 0.174 ± 0.028 | 0.334 ± 0.068 | 0.146 ± 0.026
6 | CLLDVVMVVERG | 0.384 ± 0.055 | 0.432 ± 0.0095 | 0.347 ± 0.032 | 0.4016 ± 0.0028 | 0.364 ± 0.035 | 0.347 ± 0.016 | 0.392 ± 0.0043 | 0.365 ± 0.012
7 | CPMFVKFFFCLY | 0.448 ± 0.027 | 0.462 ± 0.011 | 0.465 ± 0.036 | 0.508 ± 0.019 | 0.479 ± 0.013 | 0.41 ± 0.021 | 0.481 ± 0.0055 | 0.405 ± 0.024
8 | CRGLSWRMITCL | 0.493 ± 0.035 | 0.59 ± 0.049 | 0.484 ± 0.016 | 0.6459 ± 0.00088 | 0.125 ± 0.011 | 0.14 ± 0.015 | 0.176 ± 0.02 | 0.225 ± 0.012
9 | CRLRYSILWFRL | 0.104 ± 0.024 | 0.09746 ± 0.00035 | 0.245 ± 0.033 | 0.309 ± 0.032 | 0.201 ± 0.016 | 0.124 ± 0.017 | 0.155 ± 0.006 | 0.152 ± 0.017
10 | CRRQLKVLKSMS | 0.581 ± 0.072 | 0.697 ± 0.025 | 0.653 ± 0.023 | 0.6892 ± 0.0061 | 0.148 ± 0.021 | 0.151 ± 0.03 | 0.31 ± 0.013 | 0.242 ± 0.039
11 | CSFHFSLFFLRV | 0.3793 ± 0.0022 | 0.426 ± 0.048 | 0.356 ± 0.027 | 0.4589 ± 0.0031 | 0.485 ± 0.042 | 0.332 ± 0.014 | 0.422 ± 0.0073 | 0.334 ± 0.037
12 | CSRVVGLFFLVV | 0.5355 ± 0.0037 | 0.62 ± 0.019 | 0.427 ± 0.04 | 0.649 ± 0.042 | 0.371 ± 0.0081 | 0.413 ± 0.033 | 0.604 ± 0.016 | 0.432 ± 0.033
13 | CVCLWCFLVWAR | 0.307 ± 0.018 | 0.391 ± 0.029 | 0.259 ± 0.025 | 0.4581 ± 0.0023 | 0.259 ± 0.013 | 0.246 ± 0.027 | 0.436 ± 0.017 | 0.384 ± 0.016
14 | CVCPFCVWVSCL | 0.598 ± 0.066 | 0.744 ± 0.054 | 0.51 ± 0.027 | 0.752 ± 0.0091 | 0.242 ± 0.0047 | 0.263 ± 0.032 | 0.4205 ± 0.0029 | 0.433 ± 0.081
15 | CVSFFRCLFLIV | 0.217 ± 0.0061 | 0.231 ± 0.019 | 0.302 ± 0.028 | 0.3805 ± 0.00051 | 0.193 ± 0.0083 | 0.144 ± 0.013 | 0.194 ± 0.017 | 0.168 ± 0.0043
16 | CWYVCSFWPYVV | 0.366 ± 0.061 | 0.6476 ± 0.0021 | 0.548 ± 0.022 | 0.69 ± 0.0077 | 0.0885 ± 0.0085 | 0.089 ± 0.027 | 0.0762 ± 0.016 | 0.174 ± 0.013
17 | DAGSSYRFFRFI | 0.693 ± 0.071 | 0.755 ± 0.011 | 0.661 ± 0.011 | 0.739 ± 0.0078 | 0.315 ± 0.0095 | 0.344 ± 0.01 | 0.578 ± 0.0081 | 0.425 ± 0.022
18 | DFFTSFSLFFFL | 0.674 ± 0.028 | 0.7814 ± 0.0048 | 0.635 ± 0.036 | 0.736 ± 0.008 | 0.638 ± 0.051 | 0.636 ± 0.018 | 0.701 ± 0.008 | 0.0727 ± 0.039
19 | DLIGSVRRLFCV | 0.651 ± 0.042 | 0.725 ± 0.013 | 0.621 ± 0.014 | 0.728 ± 0.017 | 0.18 ± 0.0082 | 0.214 ± 0.0082 | 0.303 ± 0.0047 | 0.27 ± 0.042
20 | DLLKAILKIKSL | 0.579 ± 0.095 | 0.704 ± 0.05 | 0.6279 ± 0.0037 | 0.7476 ± 0.0011 | 0.104 ± 0.0099 | 0.0962 ± 0.017 | 0.162 ± 0.049 | 0.171 ± 0.054
